For this experiment, the target named is SNID2 peptide of the CD3 zeta chain. Nature of the experiment: ITC. A general note: ITC needs no label: the signal is the heat of the interaction.

Here are results for two substances from PMC6956826.

As a reminder, the stoichiometry N is the number of molecules, sites or subunits per partner or assembly. By Kd is commonly meant the equilibrium constant for the complex coming apart.

“SIVmac239 Nef core domain harboring the C-terminal region (domain or fragment)”: the dH is -14.2 kcal/mol and the stoichiometry N stood at 1.05.
Consider HIV-2 consensus Nef, for which the equilibrium dissociation constant (Kd) was 12 µM, the dH is -12.3 kcal/mol and the stoichiometry N amounted to 1.08.
